Laboratory results as given in publication PMC11297322, “MEILB2-BRME1 forms a V-shaped DNA clamp upon BRCA2-binding in meiotic recombination” (Nature Communications, 2023).
One block for each binder: values may come before it.

B4: MEILB2α (mouse MEILB2 amino-acids 22–81) (domain or fragment, UniProt Q9D4G2 22-81, looked up)
chain: EEFVKVRKKDLERLTTEVMQIRDFLPRILNGELLESFQKLKMVEKNLERKEQELEQLIMD
notes: MEILB2 (meiotic localiser of BRCA2; HSF2BP), mouse, residues 22-81: the α1 helix and the beginning of the α2 helix; Two copies stand in the 2:2 core complex with BRME1; also called HSF2BP; source: E. coli BL21 (DE3), purified with BRME1 (Ni-NTA, amylose, ion exchange, TEV cleavage, SEC); not shown: His6-MBP (pMAT11) or MBP (pRSF-Duet1), N-terminal, cleaved
B6: MBP-MEILB2 (mouse MEILB2 22–338 with N-terminal MBP-tag) (domain or fragment, UniProt Q9D4G2 22-338, looked up)
chain: EEFVKVRKKDLERLTTEVMQIRDFLPRILNGELLESFQKLKMVEKNLERKEQELEQLIMDREHFKARLETAQADSGREKKEKLALRQQLNEAKQQLLQQAEYCTQMGAVTCTLLWGVSSSEEVVKTILGGDKALKFFNITGQTMESFVKSLDGDVKEVDSDENQFVFALAGIVTNVAAIACGREFLVNSSRVLLDTMLQLLGDLKPGQCTKLKVLMLMSLYNVSINSKGLKYITESPGFIPLLWWLLSDPDAEVCLHTLRLIQSVVLEPDVFSKVASELQSSLPLQRILAMSKSRNSHLQSAAQELLEDLRALDCNV
notes: MEILB2 (HSF2BP), mouse, residues 22-338; also called MEILB2 with N-terminal MBP-tag; source: E. coli BL21 (DE3), purified in complex; not shown: MBP, N-terminal, kept
B7: MEILB2 (mouse MEILB2 amino-acids 22–338, the full structured region) (domain or fragment, UniProt Q9D4G2 22-338, looked up)
chain: EEFVKVRKKDLERLTTEVMQIRDFLPRILNGELLESFQKLKMVEKNLERKEQELEQLIMDREHFKARLETAQADSGREKKEKLALRQQLNEAKQQLLQQAEYCTQMGAVTCTLLWGVSSSEEVVKTILGGDKALKFFNITGQTMESFVKSLDGDVKEVDSDENQFVFALAGIVTNVAAIACGREFLVNSSRVLLDTMLQLLGDLKPGQCTKLKVLMLMSLYNVSINSKGLKYITESPGFIPLLWWLLSDPDAEVCLHTLRLIQSVVLEPDVFSKVASELQSSLPLQRILAMSKSRNSHLQSAAQELLEDLRALDCNV
notes: MEILB2 (HSF2BP), mouse, residues 22-338: α-helical region (α1, α2) and C-terminal ARM domain; the N-terminal 21 residues removed; also called HSF2BP; source: E. coli BL21 (DE3), purified in complex (Ni-NTA, amylose, ion exchange, TEV cleavage, SEC); not shown: His6-MBP (pMAT11) or MBP (pRSF-Duet1), N-terminal, cleaved
B8: MEILB2 K26E (mouse MEILB2 22–338) (domain or fragment, UniProt Q9D4G2 22-338, looked up)
chain: EEFVEVRKKDLERLTTEVMQIRDFLPRILNGELLESFQKLKMVEKNLERKEQELEQLIMDREHFKARLETAQADSGREKKEKLALRQQLNEAKQQLLQQAEYCTQMGAVTCTLLWGVSSSEEVVKTILGGDKALKFFNITGQTMESFVKSLDGDVKEVDSDENQFVFALAGIVTNVAAIACGREFLVNSSRVLLDTMLQLLGDLKPGQCTKLKVLMLMSLYNVSINSKGLKYITESPGFIPLLWWLLSDPDAEVCLHTLRLIQSVVLEPDVFSKVASELQSSLPLQRILAMSKSRNSHLQSAAQELLEDLRALDCNV
notes: MEILB2 (HSF2BP), mouse, residues 22-338 with K26E; source: E. coli BL21 (DE3), purified in complex (Ni-NTA, amylose, ion exchange, TEV cleavage, SEC); not shown: His6-MBP (pMAT11) or MBP (pRSF-Duet1), N-terminal, cleaved

Key:
[1] = biological target: B7; assay: not stated; BRCA2MBD–MEILB2 in the absence of BRME1MBD, in solution; data in Supplementary Fig. 14; settings: both partners purified
[2] = biological target: B8; assay: not stated; BRCA2MBD–MEILB2–BRME1MBD complex with MEILB2 K26E; data in Supplementary Figs. 2 and 12c; settings: both partners purified
[3] = biological target: B7; assay: SEC-MALS; BRCA2MBD–MEILB2–BRME1MBD ternary complex at >5 mg/ml, Superdex 200 Increase 10/300 GL, 20 mM HEPES pH 7.5, 500 mM KCl, 2 mM DTT; settings: both partners purified
[4] = biological target: B6; assay: as above; settings: both partners purified
[5] = biological target: B7; assay: SEC-MALS; MEILB2–BRME1MBD complex at >5 mg/ml, Superdex 200 Increase 10/300 GL, 20 mM HEPES pH 7.5, 150 mM KCl, 2 mM DTT; settings: both partners purified
[6] = biological target: the molecule itself; assay: crystal structure; MEILB2α–BRME1MBD (22–81; 540–574) 2:2 core complex; crystals grown on ice in 20 mM HEPES pH 7.5, 150 mM KCl; 1.50 Å; one 2:2 complex in the asymmetric unit
[7] = biological target: B4; assay: as above; settings: both partners purified
[8] = biological target: the molecule itself; assay: SEC-MALS; BRCA2MBD–MEILB2–BRME1MBD ternary complex at >5 mg/ml, Superdex 200 Increase 10/300 GL, 20 mM HEPES pH 7.5, 500 mM KCl, 2 mM DTT
[9] = biological target: the molecule itself; assay: not stated; BRCA2MBD–MEILB2 in the absence of BRME1MBD, in solution; data in Supplementary Fig. 14
[10] = biological target: the molecule itself; assay: SEC-MALS; MEILB2–BRME1MBD complex at >5 mg/ml, Superdex 200 Increase 10/300 GL, 20 mM HEPES pH 7.5, 150 mM KCl, 2 mM DTT
[11] = biological target: the molecule itself; assay: not stated; BRCA2MBD–MEILB2–BRME1MBD complex with MEILB2 K26E; data in Supplementary Figs. 2 and 12c

stoichiometry N [1]: 0.5 BRCA2MBD per MEILB2 (4:8) | stoichiometry N [2]: 0.5 BRCA2MBD per MEILB2 (2:4 in the 2:4:4 complex) | stoichiometry N [3]: 0.5 BRCA2MBD per MEILB2 (2:4 in the 2:4:4 complex)
B1: BRCA2MBD (mouse BRCA2 amino-acids 2232–2283, MEILB2-binding domain) (domain or fragment, UniProt P97929 2232-2283, looked up)
chain: PIKRSLLNEFDRIIESKGKSLTPSKSTPDGTVKDRSLFTHHMSLEPVTCGPF
notes: source: E. coli BL21 (DE3), purified in complex with MEILB2 (Ni-NTA, amylose, ion exchange, TEV cleavage, SEC); not shown: His6-MBP (pMAT11) or MBP (pRSF-Duet1), N-terminal, cleaved

stoichiometry N [4]: 0.5 BRCA2MBD per MEILB2 (2:4 in the 2:4:4 complex)
B2: MBP-BRCA2MBD (mouse BRCA2 2232–2283 with N-terminal MBP-tag) (domain or fragment, UniProt P97929 2232-2283, looked up)
chain: PIKRSLLNEFDRIIESKGKSLTPSKSTPDGTVKDRSLFTHHMSLEPVTCGPF
notes: also called BRCA2MBD with N-terminal MBP-tag; source: E. coli BL21 (DE3), purified in complex; not shown: MBP, N-terminal, kept

stoichiometry N [2]: 1 BRME1MBD per MEILB2 (4:4 in the 2:4:4 complex) | stoichiometry N [5]: 1 BRME1MBD per MEILB2 (2:2) | stoichiometry N [4]: 1 BRME1MBD per MEILB2 (4:4 in the 2:4:4 complex) | stoichiometry N [3]: 1 BRME1MBD per MEILB2 (4:4 in the 2:4:4 complex)
B3: BRME1MBD (mouse BRME1 amino-acids 540–578) (domain or fragment, UniProt Q6DIA7 540-578, looked up)
chain: RMQDATDTVRGLVVELSGLNRLIMSTHRDLEAFKRRKTK
notes: source: E. coli BL21 (DE3), purified in complex with MEILB2 (Ni-NTA, amylose, ion exchange, TEV cleavage, SEC); not shown: His6, N-terminal, cleaved

Binder: B4
binding result [6]: binds

binding result [7]: binds
B5: BRME1MBD ΔRKTK (mouse BRME1 amino-acids 540–574) (domain or fragment, UniProt Q6DIA7 540-574, looked up)
chain: RMQDATDTVRGLVVELSGLNRLIMSTHRDLEAFKR
notes: BRME1 (BRCA2 and MEILB2-associating protein 1); The crystallography methods give 540–574 for the crystallised BRME1 chain, the results give 540–578; also called BRME1 540–574; BRME1MBD (in the crystallography methods); source: E. coli BL21 (DE3), purified with MEILB2 (Ni-NTA, amylose, ion exchange, TEV cleavage, SEC); not shown: His6, N-terminal, cleaved

Binder: B6
stoichiometry N [8]: 4 MEILB2 chains in the 2:4:4 complex (with BRCA2MBD)

Binder: B7
stoichiometry N [9]: 8 MEILB2 chains in the 4:8 oligomer (with BRCA2MBD) | stoichiometry N [10]: 2 MEILB2 chains in the 2:2 complex | stoichiometry N [8]: 4 MEILB2 chains in the 2:4:4 complex (with BRCA2MBD)

Binder: B8
stoichiometry N [11]: 4 MEILB2 chains in the 2:4:4 complex (with BRCA2MBD)
